Data on seven sequences can be found in the supplement of paper PMC11246515.

± gives the standard deviation of the averaged measurements.

A short description of the data set: total protein half-life in vivo (active degradation + dilution); higher = more stable protein.
The mark [1] stands for this setting: E. coli NCM3722 delta-clpP delta-lon delta-hslV, growth: N-lim chemostat, doubling time 6 h.
Where [2] appears, read: E. coli NCM3722 delta-clpP, growth: N-lim chemostat, doubling time 6 h.
Where [3] appears, read: E. coli NCM3722 delta-hslV, growth: N-lim chemostat, doubling time 6 h.
Where [4] appears, read: E. coli NCM3722 delta-lon, growth: N-lim chemostat, doubling time 6 h.
Where [5] appears, read: E. coli NCM3722 delta-smpB, growth: N-lim chemostat, doubling time 6 h.
The mark [6] stands for this setting: wild type E. coli NCM3722, growth: C-lim chemostat, doubling time 3 h.
[7] abbreviates: wild type E. coli NCM3722, growth: C-lim chemostat, doubling time 6 h.
[8] abbreviates: wild type E. coli NCM3722, growth: C-lim chemostat, doubling time 12 h.
[9] abbreviates: wild type E. coli NCM3722, growth: N-lim chemostat, doubling time 6 h.
The mark [10] stands for this setting: wild type E. coli NCM3722, growth: N-lim chemostat, doubling time 12 h.
[11] abbreviates: wild type E. coli NCM3722, growth: P-lim chemostat, doubling time 6 h.
Where [12] appears, read: wild type E. coli NCM3722, growth: P-lim chemostat, doubling time 12 h.

As for “MAIIPKNYARLESGYREKALKIYPWVCGRCSREFVYSNLRELTVHHIDHDHTNNPEDGSNWELLCLYCHDHEHSKYTEADQYGTTVIAGEDAQKDVGEAKYNPFADLKAMMNKKK [P0AAQ2]”, the “total protein half-life in vivo” value by setting is: under setting [1], 4.15 ± 1.2 h; under setting [2], 1.71 ± 0.098 h; under setting [3], 1.5 ± 0.031 h; under setting [4], 2.74 ± 0.48 h; under setting [5], 1.63 ± 0.71 h; under setting [6], 0.968 ± 0.29 h. Further, the “total protein half-life in vivo” value under setting [7] came to 1.73 h; the “total protein half-life in vivo” value under setting [8] is 2.42 h; the “total protein half-life in vivo” value under setting [9] is 1.97 h; the “total protein half-life in vivo” value under setting [10] was found to be 1.54 h; the “total protein half-life in vivo” value under setting [11] was found to be 1.18 h; the “total protein half-life in vivo” value under setting [12] is 3.1 ± 0.97 h.
On to “MKRHLNTCYRLVWNHMTGAFVVASELARARGKRGGVAVALSLAAVTSLPVLAADIVVHPGETVNGGTLANHDNQIVFGTTNGMTISTGLEYGPDNEANTGGQWVQDGGTANKTTVTSGGLQRVNPGGSVSDTVISAGGGQSLQGRAVNTTLNGGEQWMHEGAIATGTVINDKGWQVVKPGTVATDTVVNTGAEGGPDAENGDTGQFVRGDAVRTTINKNGRQIVRAEGTANTTVVYAGGDQTVHGHALDTTLNGGYQYVHNGGTASDTVVNSDGWQIVKNGGVAGNTTVNQKGRLQVDAGGTATNVTLKQGGALVTSTAATVTGINRLGAFSVVEGKADNVVLENGGRLDVLTGHTATNTRVDDGGTLDVRNGGTATTVSMGNGGVLLADSGAAVSGTRSDGKAFSIGGGQADALMLEKGSSFTLNAGDTATDTTVNGGLFTARGGTLAGTTTLNNGAILTLSGKTVNNDTLTIREGDALLQGGSLTGNGSVEKSGSGTLTVSNTTLTQKAVNLNEGTLTLNDSTVTTDVIAQRGTALKLTGSTVLNGAIDPTNVTLASGATWNIPDNATVQSVVDDLSHAGQIHFTSTRTGKFVPATLKVKNLNGQNGTISLRVRPDMAQNNADRLVIDGGRATGKTILNLVNAGNSASGLATSGKGIQVVEAINGATTEEGAFVQGNRLQAGAFNYSLNRDSDESWYLRSENAYRAEVPLYASMLTQAMDYDRIVAGSRSHQTGVNGENNSVRLSIQGGHLGHDNNGGIARGATPESSGSYGFVRLEGDLMRTEVAGMSVTAGVYGAAGHSSVDVKDDDGSRAGTVRDDAGSLGGYLNLVHTSSGLWADIVAQGTRHSMKASSDNNDFRARGWGWLGSLETGLPFSITDNLMLEPQLQYTWQGLSLDDGKDNAGYVKFGHGSAQHVRAGFRLGSHNDMTFGEGTSSRAPLRDSAKHSVSELPVNWWVQPSVIRTFSSRGDMRVGTSTAGSGMTFSPSQNGTSLDLQAGLEARVRENITLGVQAGYAHSVSGSSAEGYNGQATLNVTF”, for which the “total protein half-life in vivo” value under setting [1] stood at 5.867 ± 0.045 h; the “total protein half-life in vivo” value under setting [2] is 6.13 ± 0.57 h; the “total protein half-life in vivo” value under setting [3] came out at 4.9 ± 0.93 h; the “total protein half-life in vivo” value under setting [4] was determined as 5.37 ± 0.085 h; the “total protein half-life in vivo” value under setting [5] came to 5.53 ± 0.46 h; the “total protein half-life in vivo” value under setting [6] is 3.05 ± 0.062 h. Moreover, the “total protein half-life in vivo” value reads like this: under setting [7], 4.43 ± 1.3 h; under setting [8], 4.46 ± 0.86 h; under setting [9], 5.92 ± 0.28 h; under setting [10], 9.16 ± 2 h; under setting [11], 5.77 ± 0.94 h; under setting [12], 11.9 ± 0.57 h.
On to “MTKKLHIKTWGCQMNEYDSSKMADLLDATHGYQLTDVAEEADVLLLNTCSIREKAQEKVFHQLGRWKLLKEKNPDLIIGVGGCVASQEGEHIRQRAHYVDIIFGPQTLHRLPEMINSVRGDRSPVVDISFPEIEKFDRLPEPRAEGPTAFVSIMEGCNKYCTYCVVPYTRGEEVSRPSDDILFEIAQLAAQGVREVNLLGQNVNAWRGENYDGTTGSFADLLRLVAAIDGIDRIRFTTSHPIEFTDDIIEVYRDTPELVSFLHLPVQSGSDRILNLMGRTHTALEYKAIIRKLRAARPDIQISSDFIVGFPGETTEDFEKTMKLIADVNFDMSYSFIFSARPGTPAADMVDDVPEEEKKQRLYILQERINQQAMAWSRRMLGTTQRILVEGTSRKSIMELSGRTENNRVVNFEGTPDMIGKFVDVEITDVYPNSLRGKVVRTEDEMGLRVAETPESVIARTRKENDLGVGYYQP [P0AEI1]”, for which the “total protein half-life in vivo” value by setting is: under setting [1], 4.82 ± 0.13 h; under setting [2], 2.04 ± 0.24 h; under setting [3], 1.57 ± 0.14 h; under setting [4], 2.12 ± 0.29 h; under setting [5], 1.54 ± 0.098 h; under setting [6], 1.5 ± 0.018 h. The “total protein half-life in vivo” value is, setting by setting: under setting [7], 2.18 ± 0.19 h; under setting [8], 2.62 ± 0.22 h; under setting [9], 1.632 ± 0.015 h; under setting [10], 2.12 ± 0.027 h; under setting [11], 1.97 ± 0.35 h; under setting [12], 3.75 ± 0.39 h.
For “MELKATTLGKRLAQHPYDRAVILNAGIKVSGDRHEYLIPFNQLLAIHCKRGLVWGELEFVLPDEKVVRLHGTEWGETQRFYHHLDAHWRRWSGEMSEIASGVLRQQLDLIATRTGENKWLTREQTSGVQQQIRQALSALPLPVNRLEEFDNCREAWRKCQAWLKDIESARLQHNQAYTEAMLTEYADFFRQVESSPLNPAQARAVVNGEHSLLVLAGAGSGKTSVLVARAGWLLARGEASPEQILLLAFGRKAAEEMDERIRERLHTEDITARTFHALALHIIQQGSKKVPIVSKLENDTAARHELFIAEWRKQCSEKKAQAKGWRQWLTEEMQWSVPEGNFWDDEKLQRRLASRLDRWVSLMRMHGGAQAEMIASAPEEIRDLFSKRIKLMAPLLKAWKGALKAENAVDFSGLIHQAIVILEKGRFISPWKHILVDEFQDISPQRAALLAALRKQNSQTTLFAVGDDWQAIYRFSGAQMSLTTAFHENFGEGERCDLDTTYRFNSRIGEVANRFIQQNPGQLKKPLNSLTNGDKKAVTLLDESQLDALLDKLSGYAKPEERILILARYHHMRPASLEKAATRWPKLQIDFMTIHASKGQQADYVIIVGLQEGSDGFPAAARESIMEEALLPPVEDFPDAEERRLMYVALTRARHRVWALFNKENPSPFVEILKNLDVPVARKP”, the “total protein half-life in vivo” value runs as follows: under setting [1], 6.73 ± 0.37 h; under setting [2], 5.42 ± 0.098 h; under setting [3], 4.93 ± 0.55 h; under setting [4], 5.31 ± 0.26 h; under setting [5], 4.17 ± 0.1 h; under setting [6], 2.66 ± 0.17 h. Besides, the “total protein half-life in vivo” value is, setting by setting: under setting [7], 5.06 ± 0.43 h; under setting [8], 8.95 ± 0.32 h; under setting [9], 4.45 ± 0.033 h; under setting [10], 7.69 ± 0.31 h; under setting [11], 4.69 ± 0.16 h; under setting [12], 9.53 ± 0.42 h.
As to “MFGKGGLGNLMKQAQQMQEKMQKMQEEIAQLEVTGESGAGLVKVTINGAHNCRRVEIDPSLLEDDKEMLEDLVAAAFNDAARRIEETQKEKMASVSSGMQLPPGFKMPF [P0A8B5]”, the “total protein half-life in vivo” value runs as follows: under setting [1], 6.29 ± 0.61 h; under setting [2], 4.38 ± 0.044 h; under setting [3], 3.59 ± 0.49 h; under setting [4], 4.57 ± 0.16 h; under setting [5], 3.28 ± 0.64 h; under setting [6], 2.68 ± 0.07 h. The “total protein half-life in vivo” value is, setting by setting: under setting [7], 4.44 ± 0.19 h; under setting [8], 7.56 ± 0.1 h; under setting [9], 3.02 ± 0.071 h; under setting [10], 5.05 ± 0.83 h; under setting [11], 4.24 ± 0.68 h; under setting [12], 9.46 ± 0.42 h.
As to “MVERTAVFPAGRHSLYAEHRYSAAIRSGDLLFVSGQVGSREDGTPEPDFQQQVRLAFDNLHATLAAAGCTFDDIIDVTSFHTDPENQFEDIMTVKNEIFSAPPYPNWTAVGVTWLAGFDFEIKVIARIPEQ”, the “total protein half-life in vivo” value worked out at 5.72 ± 0.59 h under setting [1]; 4.29 ± 0.47 h under setting [2]; 5.62 ± 1.5 h under setting [3]; 5.45 ± 0.62 h under setting [4]; 4.61 ± 0.57 h under setting [5]; 3.61 h under setting [6]. Moreover, the “total protein half-life in vivo” value stood at 6.32 h under setting [7]; 11.5 ± 1.1 h under setting [8]; 5.02 ± 0.087 h under setting [9]; 8.83 ± 0.12 h under setting [10]; 5.604 ± 0.05 h under setting [11]; 12.1 ± 0.51 h under setting [12].
“MNNNLQRDAIAAAIDVLNEERVIAYPTEAVFGVGCDPDSETAVMRLLELKQRPVDKGLILIAANYEQLKPYIDDTMLTDVQRETIFSRWPGPVTFVFPAPATTPRWLTGRFDSLAVRVTDHPLVVALCQAYGKPLVSTSANLSGLPPCRTVDEVRAQFGAAFPVVPGETGGRLNPSEIRDALTGELFRQG”: the “total protein half-life in vivo” value under setting [1] was determined as 4.72 ± 0.33 h; the “total protein half-life in vivo” value under setting [2] came to 4.4 ± 0.6 h; the “total protein half-life in vivo” value under setting [3] turned out to be 4.12 ± 0.43 h; the “total protein half-life in vivo” value under setting [4] is 5.29 ± 0.27 h; the “total protein half-life in vivo” value under setting [5] turned out to be 3.89 ± 0.05 h; the “total protein half-life in vivo” value under setting [7] is 5.61 ± 0.47 h. For the same sequence, the “total protein half-life in vivo” value by setting is: under setting [8], 9.17 ± 0.24 h; under setting [9], 4.08 ± 0.38 h; under setting [10], 5.63 ± 1.6 h; under setting [11], 5.25 ± 0.24 h; under setting [12], 11 ± 1.6 h.
